# Reference: patent publication US20220380473A1, “ANTI-GAL3 ANTIBODIES AND USES THEREOF” (TrueBinding, Inc., priority 2019, published 2022)
# “Also recorded” adds a separate entry of the source.
# B1: 12G5.D7: murine anti-Gal3 antibody (antibody, V domains shown)
# VH: QVQLKQSGAELVRPGASVKLSCKASGYTFTDYYINWVKQRPGQGLEWIARIYPGTGNTDYNEKFKGRATLTAEKSSSTAYMQLSSLTSEDSAVYFCARFAYYYGSGGYFDYWGHGTTLTVSS
# VL: DILMTQSPSSMSVSLGDTVSITCHASQGINSNMGWLQQKPGKSFKGLIYHATNLEDGVPSRFSGSGSGADYSLTISSLESEDFADYYCVQYAQFPPTFGSGTKLEIK
# modifications: VH of 12G5.D7; VL of 12G5.D7
# notes: murine anti-Gal3 antibody
# B2: 15F10.2D6: murine anti-Gal3 antibody (antibody, V domains shown)
# VH: EVQLVESGGGLVKPGGSLKLSCAASGFAFSSYAMSWVRQTPEKRLEWVATISDGGVYTYYTDHVKGRFTISRDNAEDNLYLQMSHLKSEDTAMYYCVRDGGYWGQGTTLTVSS
# VL: DVLMTQTPLSLPVSLGDQASISCRSSQSIVHNNGNTYLEWYLQKPGQSPKLLIYKVSNRFSGVPDRFSGSGSGTDFTLKISRVEAEDLGVYYCFQGSHVPLTFGGGTKLELK
# B3: 846.1F5: murine anti-Gal3 antibody (antibody, V domains shown)
# VH: QIQLVQSGPELKKPGETVKISCKASGYTFTNYGMNWVKQAPGKGLKWMGWINTYTGEPSYADDFKGRFAFSLETSASTAYLQINNLKNEDMATYFCARWGGYDGDYYAMDYWGQGTSVTVSS
# VL: NIMMTQSPSSLAVSAGEKVTMSCKSSQSVLYSSNQKNYLAWYQQKPGQSPKLLIYWASTRESGVPDRFTGSGSGTDFTLTISSVQPEDLAVYYCHQYLSSLTFGAGTKLELK
# B4: 19B5.2E6: murine anti-Gal3 antibody (antibody, V domains shown)
# VH: QIQLVQSGPELKKPGETVKISCKASGYTFTTYAMSWVKQAPGKGLKWMGWINTYSGVPTYADDLKGRFAFSLETSASTAYLQINNLKNEDTATYFCARGPYAMDYWGQGTSVTVSS
# VL: DIQMTQTTSSLSASLGDRVTISCSASQGINNYLNWYQQKPDGTVKLLIYYASSLHSGVPSRFSGSGSGTDYSLTISNLEPEDIATYYCQQYSQVPYTFGSGTKLEIK
# B5: 23H9.2E4: murine anti-Gal3 antibody (antibody, V domains shown)
# VH: B4 VH
# VL: B4 VL
# B6: 20D11.2C6: murine anti-Gal3 antibody (antibody, V domains shown)
# VH: EVQLQQSGPELVKPGASVKISCKASGYTFTDFYINWVKQSHGKSLEWIGDINPKNGGINYNPKFKIKATLTVDKSSSTSYMDLRGLTSEDSAVYYCTSGYGFPYWGQGTLVTVSA
# VL: DIQMNQSPSSLSASLGDTITITCRASQNIYIWLSWYQQKPGNIPKLLIYKASNLHTGVPSRFSGSGSGTDFTLTISTLQPEDIATYFCLQGQSYPLTFGAGTKLEMK
# Biological target: human Gal3-His (Homo sapiens, UniProt P17931)
# Sequence (P17931 whole entry): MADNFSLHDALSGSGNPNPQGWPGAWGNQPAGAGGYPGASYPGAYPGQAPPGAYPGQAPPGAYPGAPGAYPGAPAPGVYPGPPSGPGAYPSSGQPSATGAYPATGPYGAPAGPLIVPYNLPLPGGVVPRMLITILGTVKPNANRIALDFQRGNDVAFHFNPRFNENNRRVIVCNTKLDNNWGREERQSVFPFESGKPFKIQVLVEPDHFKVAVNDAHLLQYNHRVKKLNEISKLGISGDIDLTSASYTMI
# Experiment: Antibody binning by biolayer interferometry (Gator)
# Format: binding
# Settings: antibody competition
# Procedure: To determine whether Gal3-binding antibodies with Gal3-TIM3 blocking activity bind to the same or overlapping regions of the Gal3 molecule, antibody binning assays were performed to assess the ability of antibodies to simultaneously bind Gal3. Amine-reactive probes were loaded onto a Gator biosensor (Probe Life, Palo Alto, Calif.), equilibrated in dH20 for 60 seconds, dipped into 100 μl EDC 0.2M/NHS 0.05M activation buffer for 30 seconds, then dipped into a solution of […] human Gal3-His in 10 mM NaOAc buffer, pH 5 until binding was saturated, and quenched in 1 M ethanolamine pH 8.5 for 300 seconds. Following Gal3-His loading, tips were dipped in 20 μg/mL saturating antibody, then successively dipped into 5 μg/mL competing antibody.
row,Bin,Molecule
1,10,B1
2,8,B2
3,3,B3
4,4,B4
5,4,B5
6,5,B6

# Test system: hGal3 peptide
# Experiment: Gal3 peptide library ELISA (Example 25)
# Format: binding, human
# Settings: hGal3 peptide No. bound
# Procedure: To identify the epitopes to which Gal3 antibodies with and without Gal3-TIM3 blocking activity bound, a library of 20 amino acid peptides representing portions of Gal3, summarized in Table 24.1, was produced and the ability to bind Gal3 antibodies was evaluated by ELISA.
# At least 2 μg/ml of hGal3 peptide in 50 μl of PBS or 0.1 μg/ml of full-length human Gal3 protein (GenScript) and human Galectin-3 protein (Acro Biosystems, GA3-H5129) were diluted in PBS (Corning, 21-030-CM) to concentrations of at least 2 μg/ml or 0.1 μg/ml, respectively, and added to the wells of a 96-well ELISA plate (Thermo Fisher, 44-2404-21). After incubating the plate at 4° C. overnight, the plate was washed three times with PBST (PBS with 0.05% Tween 20 [VWR, 0777]). The plate was then blocked for an hour with 2% BSA (EMD Millipore, 126609) in PBST at room temperature with gentle rocking. Thereafter, the 2% BSA in PBST was discarded and human Galectin-3 hybridoma supernatants or antibodies were diluted in 2% BSA in PBST to concentrations of at least 0.1 μg/ml and added to the wells. The plate was incubated for an hour at room temperature with gentle rocking and then washed three times with PBST. Afterwards, Goat Anti-Mouse IgG-HRP (Jackson ImmunoResearch, 115-036-1461) or Goat Anti-Rat IgG HRP (abcam, ab205720) diluted in 2% BSA in PBST (1:4000) were added to the wells. The plate was incubated for 30 minutes to 1 hour at room temperature with gentle rocking and then washed three times with PB ST. TMB substrate (Thermo Scientific, 34029) was then added to each well. The reaction was stopped with 1M HCl (JT Baker, 5620-02) and read using a plate reader (Molecular Devices) at absorbance of 450 nm.
row,Molecule,Epitope Mapping
1,B1,Non-linear
2,B2,"2,7"
3,B3,6
4,B4,"1,7"
5,B5,"1,7"

# Same assay, conditions: peptide array ELISA
row,Molecule,Gal3 peptide bound
1,B2,peptide 7
2,B3,peptide 6
3,B4,peptide 1; also recorded: peptide 7
4,B5,peptide 1; also recorded: peptide 7
5,B6,peptide 1; also recorded: peptide 7

# Biological target: Galectin-3 (Homo sapiens, UniProt P17931)
# Sequence (P17931 whole entry): as above
# Experiment: SPR (BiacoreT200) binding affinity
# Settings: 25° C., read-out: hGal-3 KD
# Procedure: GAL3-binding antibodies were evaluated for their binding affinity by SPR. Kinetics experiments were performed on BiacoreT200 at 25° C. in high performance mode. Ligand proteins, purified antibodies were captured onto a CM5 chip coupled with anti-human Fc or anti-mouse Fc antibody, three antibodies at a time onto flow cell #2, 3, and 4, respectively, while flow cell #1 was used as reference. The analyte Galectin-3 in HBS-EP buffer was injected over all four flow cells at concentrations of 100, 50, 25, 12.5, 6.25, 3.125 and 0 nM at a flow rate of 30 μL/min. The complex was allowed to associate and dissociate for 240 and 300 seconds, respectively. The surfaces were regenerated with a 30 second injection of 10 mM Glycine pH 1.7 (flow rate 30 μL/min). The data were fit to a simple 1:1 interaction model using the global data analysis option available within BiacoreT200 Evaluation software V2.0. The affinity of Gal3 monoclonal antibodies was confirmed to be […] 30 nM for all antibodies studied (Table 24.1). Antibodies with affinity less than 2E-7 were selected for further characterization.
row,Kd,Molecule
1,1.9 nM,B1
2,2.06 nM,B2
3,2.73 nM,B3
4,< 1 nM,B4
5,4.26 nM,B5
6,27.8 nM,B6

# Biological target: T1, association of GAL3 and TIM3 (Homo sapiens, UniProt P17931)
# T1 construct: full-length human Galectin-3 protein (Acro Biosystems, GA3-H5129); linker-spaced 6-histidine tag; purchased Acro Biosystems GA3-H5129 (Gal3); TM3-H5229 (TIM-3)
# T1 sequence (P17931 2-250 limits assumed): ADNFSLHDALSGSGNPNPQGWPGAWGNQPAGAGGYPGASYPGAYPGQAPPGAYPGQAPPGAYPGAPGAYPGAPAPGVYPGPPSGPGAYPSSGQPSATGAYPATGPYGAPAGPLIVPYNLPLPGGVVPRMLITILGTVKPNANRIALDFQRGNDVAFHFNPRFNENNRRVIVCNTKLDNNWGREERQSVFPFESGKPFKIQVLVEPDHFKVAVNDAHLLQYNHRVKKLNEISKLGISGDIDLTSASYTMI
# Experiment: GAL3-TIM3 blocking ELISA (Examples 24, 27)
# Format: binding
# Settings: 3 ug/mL antibody
# Procedure: Positively scoring wells were evaluated for the ability to block association of GAL3 and TIM3. To identify GAL3-targeted antibodies with the ability to block the interaction of GAL3 and TIM3, purified GAL3 and TIM3 proteins were incubated in the presence of GAL3-immunization hybridoma supernatants described above, or without antibody, and protein interaction was evaluated by ELISA. Human Galectin-3 protein (Acro Biosystems, GA3-H5129) was diluted in PBS (Corning, 21-030-CM) to a concentration of 3 μg/ml and added to the wells of a 96-well ELISA plate (Thermo Fisher, 44-2404-21). After incubating the plate at 4° C. overnight, the plate was washed three times with PBST (PBS with 0.05% Tween 20 [VWR, 0777]). The plate was then blocked for an hour with 2% BSA (EMD Millipore, 126609) in PBST at room temperature with gentle rocking. Thereafter, the 2% BSA in PBST was discarded and antibody or inhibitor (3-fold dilutions beginning at 20 μg/ml, 60 μg/ml, or 180 μM) in 2% BSA in PBST was added to the wells. Afterwards, 2 μg/ml of human TIM3 (Aero Biosystems, TM3-H5229) in 2% BSA in PBST was added to the antibody or inhibitor in the wells in a 1:1 ratio. The plate was incubated for an hour at room temperature with gentle rocking. Thereafter, the plate was washed three times with PBST, and 0.3 μg/ml of human TIM3 Biotinylated Antibody (R&D Systems, BAF2365) in 2% BSA in PBST was added to the wells. The plate was incubated for an hour with gentle rocking and then washed three times with PBST. Avidin-HRP (1:2000) was then added to the wells. The plate was incubated at room temperature for an hour with gentle rocking and then washed three times with PBST. TMB substrate (Thermo Scientific, 34029) was then added to each well. The reaction was stopped with 1M HCl (JT Baker, 5620-02) and read using a plate reader (Molecular Devices) at absorbance of 450 nm.
row,GAL3-TIM3 Blocking @ 3 ug/mL,Molecule
1,12%,B1
2,19%,B2
3,90%,B3
4,61%,B4
5,80%,B5
6,40%,B6
